The target in the assay is soluble HLA-B*0702 (human).

B1: Ipep 1838 (peptide)
peptide: SPGALVVGVI
modifications: not checked
For B1, the % competition was 30%.

The values are drawn from US7378234.
